Numbering of substitutions follows the chain as printed. Numbers in names are those of the source. Blank lines part the entries; values can stand above or below the binder they belong to.
Key:
[1] = biological target: T1, human C5 (purified human complement C5, Complement Technology #A120; also C5 in normal human serum) (human, UniProt P01031 19-673; P01031 678-1676); test: direct ELISA, plate coated with purified human C5, serially diluted mAb
T1 construct: domain: β chain;domain: α chain; Purified plasma protein bought from Complement Technology; also called hC5
Excerpt: Direct antigen binding ELISA in which mAbs are serially diluted across microtiter plates coated with purified human C5.

[2] = biological target: T1, human C5 (purified human complement C5, …); test: ELISA, plate coated with human C5, anti-human IgG4-HRP detection
Excerpt: A plate was coated with human C5.

T1 sequence (P01031 19-673 limits assumed, chain 1 of 2): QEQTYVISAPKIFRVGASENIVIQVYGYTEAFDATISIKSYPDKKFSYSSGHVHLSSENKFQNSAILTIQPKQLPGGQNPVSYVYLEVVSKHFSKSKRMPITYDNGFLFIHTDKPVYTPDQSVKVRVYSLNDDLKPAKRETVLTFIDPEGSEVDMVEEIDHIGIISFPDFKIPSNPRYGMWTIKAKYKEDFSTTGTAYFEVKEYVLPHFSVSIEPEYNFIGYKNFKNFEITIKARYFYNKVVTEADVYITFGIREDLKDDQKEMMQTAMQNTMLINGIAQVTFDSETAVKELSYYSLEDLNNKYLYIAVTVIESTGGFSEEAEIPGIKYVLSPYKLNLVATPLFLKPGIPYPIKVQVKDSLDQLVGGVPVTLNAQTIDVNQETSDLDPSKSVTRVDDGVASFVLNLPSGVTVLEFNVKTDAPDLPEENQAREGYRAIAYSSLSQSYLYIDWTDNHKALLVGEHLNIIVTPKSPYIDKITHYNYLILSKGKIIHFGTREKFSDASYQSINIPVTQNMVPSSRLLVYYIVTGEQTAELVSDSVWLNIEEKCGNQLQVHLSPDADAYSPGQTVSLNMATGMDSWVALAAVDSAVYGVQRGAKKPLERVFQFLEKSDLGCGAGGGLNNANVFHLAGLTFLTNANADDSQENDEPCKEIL
T1 sequence (P01031 678-1676 limits assumed, chain 2 of 2): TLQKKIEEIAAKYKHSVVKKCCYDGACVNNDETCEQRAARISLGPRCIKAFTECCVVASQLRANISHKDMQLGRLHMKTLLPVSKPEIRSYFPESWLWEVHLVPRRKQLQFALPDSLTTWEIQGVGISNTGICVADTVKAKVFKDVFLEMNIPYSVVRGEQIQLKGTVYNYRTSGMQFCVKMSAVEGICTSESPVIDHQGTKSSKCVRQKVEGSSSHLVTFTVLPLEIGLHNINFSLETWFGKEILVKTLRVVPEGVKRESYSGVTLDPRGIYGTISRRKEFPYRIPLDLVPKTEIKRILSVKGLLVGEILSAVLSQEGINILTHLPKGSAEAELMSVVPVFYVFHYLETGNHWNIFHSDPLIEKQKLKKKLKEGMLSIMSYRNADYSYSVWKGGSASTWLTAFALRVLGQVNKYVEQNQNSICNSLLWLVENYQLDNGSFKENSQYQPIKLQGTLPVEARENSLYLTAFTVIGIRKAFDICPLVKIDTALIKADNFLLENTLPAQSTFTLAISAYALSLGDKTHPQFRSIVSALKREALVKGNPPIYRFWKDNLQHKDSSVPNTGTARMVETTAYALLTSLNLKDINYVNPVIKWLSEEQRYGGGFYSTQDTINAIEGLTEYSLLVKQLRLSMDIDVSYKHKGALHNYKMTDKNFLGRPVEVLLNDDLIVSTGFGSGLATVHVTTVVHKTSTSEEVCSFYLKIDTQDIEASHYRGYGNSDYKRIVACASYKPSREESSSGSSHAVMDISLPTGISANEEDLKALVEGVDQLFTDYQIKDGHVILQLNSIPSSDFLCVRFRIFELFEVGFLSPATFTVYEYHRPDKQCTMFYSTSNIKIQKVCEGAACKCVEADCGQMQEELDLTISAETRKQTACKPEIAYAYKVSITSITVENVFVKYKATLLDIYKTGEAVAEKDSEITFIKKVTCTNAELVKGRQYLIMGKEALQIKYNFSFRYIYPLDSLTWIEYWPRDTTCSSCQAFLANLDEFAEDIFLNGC

B1: anti-human C5 mAb 8E1 (antibody, V domains shown)
VH: QVQLKESGPGLVAPSQSLSITCTVSGFPLNNYGIHWVRQPPGKGLEWLAVIWSDGRTTYNSALNSRLSISKDNSKSQVFFKMNSLQTDDTAMYYCARHDGRGDYSMDYWGQGTSVTVSS
VL: ELVMTQSPASLVVSLGQRATISCRASKGVSTSVYSYMHWYQQKPGQPPKLLIYLASNLESGVPARFSGSGSGTDFSLNIHPVEEEDAATYYCQQSGELPLTFGAGTKLELKR
notes: Murine hybridoma mAb; entries may include the leader peptide
binding result [1]: binds

B4: humanized 2G1 (VH-11801/VL-1901) (antibody, V domains shown)
VH: QVQLVQSGAEVKKPGASVKVSCKASGYTITDYNLDWVRQAPGQGLEWMGDISPNYGYTIYNQKFKDRVTMTTDTSTSTAYMELRSLRSDDTAVYYCARRDIRYSGNSYKWYFDVWGQGTMVTVSS
VL: DIQLTQSPSFLSASVGDRVTITCRTSKSISKYLAWYQQKPGKAPKLLIYSGSTLQSGVPSRFSGSGSGTEFTLTISSLQPEDFATYYCQQHNEYPYTFGQGTKLEIKT
notes: Human IgG4 mAb with S228P, expressed in CHO cells
binding result [2]: binds

B5: humanized 2G1 (VH-16901/VL-1901) (antibody, V domains shown)
VH: B4 VH with A16S, M70I, T72A, T74E, R84S, D89E
VL: B4 VL
notes: as for B4
binding result [2]: binds

Second part, the binder after the results:

binding result [1]: binds
B2: anti-human C5 mAb 11C5 (antibody, V domains shown)
VH: EVQLVESGGGLVKPGGSLKLSCAASGFTFTTYAMSWVRQTPEKRLEWVATISAGGTYTYYSDNVKGRFTISRDNAKNNLYLQMSHLKSEDTAMFYCARDPDYYGRSPFAYWGQGTLVTVSA
VL: EIVLTQSPATLSVTPGESVSLSCRASQSISNNLQWYQQKSHESPRLLIKYASQSISGIPSRFSGSGSGTDFTLSINSVETEDFGMYFCQQSNSWPLTFGGGTKVELKR
notes: as for B1

binding result [1]: binds
B3: anti-human C5 mAb 9G6 (antibody, V domains shown)
VH: QIQLVQSGPELKKPGETVKISCKASGYTFTEYPMHWVKQAPGKSFKWMGILYTDTGEPTYAEEFRGRFAFSLETSASTAYLQINNLKNEDTATYFCVHSGYVGYWGQGTTLTVSS
VL: DIQMTQSPASLSASVGETVTFTCRASEIIYSYLVWYQQKQGKSPQLLVSNAKTLAEGVPSRFSGSGSGTQFSLKINSLQPEDFGSYYCQHYYGNPPTFGGGTKLEIKR
notes: as for B1

Source: patent US20230227571A1 (University of Pennsylvania, published 2023)
